Laboratory results reported in US20230035659A1, “Compositions and Methods for TTR Gene Editing and Treating ATTR Amyloidosis Comprising a Corticosteroid or Use Thereof” (Intellia Therapeutics, Inc., priority 2019, published 2023).
Strand notation (5' to 3'): a small letter for the sugar, then the base; units joined by * are phosphorothioate-linked, units joined directly phosphodiester-linked; [ ] holds rarer units or linkages, { } end groups; capitals alone tell only the bases. m = 2'-O-methyl; r = 2'-OH (RNA)

B1: G000488: TTR sgRNA modified sequence, Human, SEQ ID NO: 95; guide sequence of CR003346 (nucleic acid)
guide: mA*mA*mA*rGrUrUrCrUrArGrArUrGrCrUrGrUrCrCrGrGrUrUrUrUrArGrAmGmCmUmAmGmAmAmAmUmAmGmCrArArGrUrUrArArArArUrArArGrGrCrUrArGrUrCrCrGrUrUrArUrCrAmAmCmUmUmGmAmAmAmAmAmGmUmGmGmCmAmCmCmGmAmGmUmCmGmGmUmGmCmU*mU*mU*mU
B2: G000489: TTR sgRNA modified sequence, Human, SEQ ID NO: 96; guide sequence of CR003344 (nucleic acid)
guide: mU*mU*mU*rGrArCrCrArUrCrArGrArGrGrArCrArCrUrGrUrUrUrUrArGrAmGmCmUmAmGmAmAmAmUmAmGmCrArArGrUrUrArArArArUrArArGrGrCrUrArGrUrCrCrGrUrUrArUrCrAmAmCmUmUmGmAmAmAmAmAmGmUmGmGmCmAmCmCmGmAmGmUmCmGmGmUmGmCmU*mU*mU*mU
B3: G000490: TTR sgRNA modified sequence, Human, SEQ ID NO: 97; guide sequence of CR003366 (nucleic acid)
guide: mA*mA*mA*rUrArGrArCrArCrCrArArArUrCrUrUrArCrGrUrUrUrUrArGrAmGmCmUmAmGmAmAmAmUmAmGmCrArArGrUrUrArArArArUrArArGrGrCrUrArGrUrCrCrGrUrUrArUrCrAmAmCmUmUmGmAmAmAmAmAmGmUmGmGmCmAmCmCmGmAmGmUmCmGmGmUmGmCmU*mU*mU*mU
B4: G000493: TTR sgRNA modified sequence, Human, SEQ ID NO: 100; guide sequence of CR003368 (nucleic acid)
guide: mA*mA*mG*rUrGrCrCrUrUrCrCrArGrUrArArGrArUrUrGrUrUrUrUrArGrAmGmCmUmAmGmAmAmAmUmAmGmCrArArGrUrUrArArArArUrArArGrGrCrUrArGrUrCrCrGrUrUrArUrCrAmAmCmUmUmGmAmAmAmAmAmGmUmGmGmCmAmCmCmGmAmGmUmCmGmGmUmGmCmU*mU*mU*mU
B5: G000500: TTR sgRNA modified sequence, Human, SEQ ID NO: 107; guide sequence of CR003337 (nucleic acid)
guide: mC*mC*mA*rGrUrCrCrArGrCrArArGrGrCrArGrArGrGrGrUrUrUrUrArGrAmGmCmUmAmGmAmAmAmUmAmGmCrArArGrUrUrArArArArUrArArGrGrCrUrArGrUrCrCrGrUrUrArUrCrAmAmCmUmUmGmAmAmAmAmAmGmUmGmGmCmAmCmCmGmAmGmUmCmGmGmUmGmCmU*mU*mU*mU
B6: G000568: TTR sgRNA modified sequence, Human, SEQ ID NO: 110; guide sequence of CR003391 (nucleic acid)
guide: mG*mG*mC*rUrGrUrCrGrUrCrArCrCrArArUrCrCrCrArGrUrUrUrUrArGrAmGmCmUmAmGmAmAmAmUmAmGmCrArArGrUrUrArArArArUrArArGrGrCrUrArGrUrCrCrGrUrUrArUrCrAmAmCmUmUmGmAmAmAmAmAmGmUmGmGmCmAmCmCmGmAmGmUmCmGmGmUmGmCmU*mU*mU*mU
B7: G000572: TTR sgRNA modified sequence, Human, SEQ ID NO: 113; guide sequence of CR003385 (nucleic acid)
guide: mC*mC*mC*rCrUrArCrUrCrCrUrArUrUrCrCrArCrCrArGrUrUrUrUrArGrAmGmCmUmAmGmAmAmAmUmAmGmCrArArGrUrUrArArArArUrArArGrGrCrUrArGrUrCrCrGrUrUrArUrCrAmAmCmUmUmGmAmAmAmAmAmGmUmGmGmCmAmCmCmGmAmGmUmCmGmGmUmGmCmU*mU*mU*mU
B8: G000481: TTR sgRNA modified sequence, Human, SEQ ID NO: 88; guide sequence of CR003345 (nucleic acid)
guide: UCUAGAACUUUGACCAUCAGGUUUUAGAGCUAGAAAUAGCAAGUUAAAAUAAGGCUAGUCCGUUAUCAACUUGAAAAAGUGGCACCGAGUCGGUGCUUUU
modifications: sugars from the 5' end m3 r25 m12 r28 m32, backbone not given here; further chemistry not fully specified

Key:
Assay type in all cases: cell-based
[1] = tested on: potential off-target genomic sites; test: Off-target analysis by oligo insertion based assay in primary human hepatocytes (sgRNAs); conditions: 100 ng Cas9 mRNA, 25 nM sgRNA, 12.5 nM donor oligo, 48 h
TTR [2] = test: TTR editing in primary human hepatocytes treated with LNP formulated Spy Cas9 mRNA (SEQ ID NO: 2) and sgRNAs, 12.5 ng mRNA; conditions: LNP formulated Spy Cas9 mRNA (SEQ ID NO: 2) and sgRNA, 12.5 ng mRNA, 3.9 nM sgRNA, 72 hours
Experimental: Primary liver hepatocytes. Primary human liver hepatocytes (PHH) and primary cynomolgus liver hepatocytes (PCH) (Gibco) were cultured per the manufacturer's protocol (Invitrogen, protocol 11.28.2012). In brief, the cells were thawed and resuspended in hepatocyte thawing medium with supplements (Gibco, Cat. CM7000) followed by centrifugation at 100 g for 10 minutes for human and 80 g for 4 minutes for cyno. The supernatant was discarded and the pelleted cells resuspended in hepatocyte plating medium plus supplement pack (Invitrogen, Cat. A1217601 and CM3000). Cells were counted and plated on Bio-coat collagen I coated 96-well plates (ThermoFisher, Cat. 877272) at a density of 33,000 cells/well for human or 60,000 cells/well for cyno (or 65,000 cells/well when assaying effects on TTR protein, described further below). Plated cells were allowed to settle and adhere for 6 or 24 hours in a tissue culture incubator at 37° C. and 5% CO2 atmosphere. After incubation cells were checked for monolayer formation and media was replaced with hepatocyte culture medium with serum-free supplement pack (Invitrogen, Cat. A1217601 and CM4000).
In general, the lipid nanoparticle components were dissolved in 100% ethanol with the lipid component of various molar ratios. The RNA cargos were dissolved in 25 mM citrate, 100 mM NaCl, pH 5.0, resulting in a concentration of RNA cargo of approximately 0.45 mg/mL. The LNPs were formulated with a lipid amine to RNA phosphate (N:P) molar ratio of about 4.5 or about 6, with the ratio of mRNA to gRNA at 1:1 by weight.
The LNPs were formed by microfluidic mixing of the lipid and RNA solutions using a Precision Nanosystems NanoAssemblr™ Benchtop Instrument, according to the manufacturer's protocol. A 2:1 ratio of aqueous to organic solvent was maintained during mixing using differential flow rates. After mixing, the LNPs were collected, diluted in water (approximately 1:1 v/v), held for 1 hour at room temperature, and further diluted with water (approximately 1:1 v/v) before final buffer exchange. The final buffer exchange into 50 mM Tris, 45 mM NaCl, 5% (w/v) sucrose, pH 7.5 (TSS) was completed with PD-10 desalting columns (GE). If required, formulations were concentrated by centrifugation with Amicon 100 kDa centrifugal filters (Millipore). The resulting mixture was then filtered using a 0.2 μm sterile filter. The final LNP was stored at −80° C. until further use.
Additional PCR was performed per the manufacturer's protocols (Illumina) to add chemistry for sequencing. The amplicons were sequenced on an Illumina MiSeq instrument. The reads were aligned to a reference genome (e.g., the human reference genome (hg38), the cynomologus reference genome (mf5), the rat reference genome (rn6), or the mouse reference genome (mm10)) after eliminating those having low quality scores. The resulting files containing the reads were mapped to the reference genome (BAM files), where reads that overlapped the target region of interest were selected and the number of wild type reads versus the number of reads which contain an insertion, substitution, or deletion was calculated.
The editing percentage (e.g., the “editing efficiency” or “percent editing” or “indel frequency”) is defined as the total number of sequence reads with insertions/deletions (“indels”) or substitutions over the total number of sequence reads, including wild type.
Lipid nanoparticle formulations of modified sgRNAs targeting human TTR and the cyno matched sgRNA sequences were tested on primary human hepatocytes and primary cyno hepatocytes in a dose response curve. Primary human and cyno hepatocytes were plated as described in Example 1. Both cell lines were incubated at 37° C., 5% CO2 for 24 hours prior to treatment with LNPs. The LNPs used in the experiments detailed in Tables 18-21 were prepared using the Nanoassemblr™ procedure, each containing the specified sgRNA and Cas9 mRNA (SEQ ID NO:2), each having Lipid. […]

TTR [3] = test: TTR editing dose response (EC50, maximum editing) in primary human hepatocytes treated with LNP formulated U-depleted Spy Cas9 mRNA and sgRNAs; conditions: LNP formulated U-depleted Spy Cas9 mRNA and human specific sgRNAs, dose response
Summary of the method: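 Primary human hepatocytes, plated 24 h earlier, got LNPs carrying Cas9 mRNA and sgRNA, preincubated 5 min in medium with 6% cyno serum. Dosing was an 8-point 3-fold series from 300 ng mRNA. At 72 h, NGS read indel/substitution frequency at the target, giving EC50 and maximum percent editing.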

| Molecule | # Sites in PHH (off-target integration sites detected) [1] | 12.5 ng mRNA, 3.9 nM sgRNA, Avg % Edit (TTR [2]) | Max Editing (TTR [3]) |
| --- | --- | --- | --- |
| B1 | 0 | 44.80% | 95.83% |
| B2 | 2 | 16.85% | 86.33% |
| B3 | 0 | 10.53% | 94.16% |
| B4 | 1 | 7.33% | 63.95% |
| B5 | 12 | 23.57% | 88.70% |
| B6 | 11 | 54.60% | 95.72% |
| B7 | 2 | 55.45% | 97.94% |
| B8 | 0 | 24.37% | 87.05% |
